The values that follow come from the RNAGym collection of RNA variant scans (doi:10.7554/elife.80360).

First the molecules themselves.
B1: CPEB3 Ribozyme (parent)
chain: GGGGGCCACAGCAGAAGCGUUCACGUCGCGGCCCCUGUCAGAUUCUGGUGAAUCUGCGAAUUCUGCUGU

Variants of B1 are the subject of the series. Briefly: self-cleavage, relative activity (ratio to wild type); higher = more cleavage; co-transcriptional.
In the case of GGGGGCCACAGCAGAAGCGUUCACGUCGCGGCCCCUGUCAGAUUCUGGGGAAUCUGCGAAUUCUGCGGU [U49G U67G], the self-cleavage was 1.05.
As for GGGGGCCACAGCAGAAGCGUUCACGUCGCGGCCCCUGUCAGAUUCUGGGGAAUCUGCGAAUUCUGCAGU [U49G U67A], the self-cleavage came to 1.04.
The same measure for GGGGGCCACAGCAGAAGCGUUCACGUCGCGGCCCCUGUCAGAUUCUGGGGAAUCUGCGCAUUCUGCUGU [U49G A59C]: 0.68.
The result for GGGGGCCACAGCAGAAGCGUUCACGUCGCGGCCCCUGUCAGAUUCUGGCUAAUCUGCGAAUUCUGCUGU [U49C G50U] reads 1.03.
Regarding GGGGGCCACAGCAGAAGCGUUCACGUCGCGGCCCCUGUCAGAUUCUGGCCAAUCUGCGAAUUCUGCUGU [U49C G50C], the self-cleavage was 1.03.
The result for GGGGGCCACAGCAGAAGCGUUCACGUCGCGGCCCCUGUCAGAUUCUGGUAAAUCUGGGAAUUCUGCUGU [G50A C57G] reads 0.301.
The same measure for GGGGGCCACAGCAGAAGCGUUCACGUCGCGGCCCCUGUCAGAUUCUGGGGAAUUUGCGAAUUCUGCUGU [U49G C54U]: 0.972; for GGGGGCCACAGCAGAAGCGUUCACGUCGCGGCCCCUGUCAGAUUCUGGGGAAUCUGCGAAUUCUCCUGU [U49G G65C]: 0.607; for GGGGGCCACAGCAGAAGCGUUCACGUCGCGGCCCCUGUCAGAUUCUGGGGAAUCUGCGAAUUCUUCUGU [U49G G65U]: 0.787.
The result for GGGGGCCACAGCAGAAGCGUUCACGUCGCGGCCCCUGUCAGAUUCUGGGGAAUCUGCAAAUUCUGCUGU [U49G G58A] reads 0.912; that for GGGGGCCACAGCAGAAGCGUUCACGUCGCGGCCCCUGUCAGAUUCUGGUAAAUCUGCUAAUUCUGCUGU [G50A G58U], 1.02; that for GGGGGCCACAGCAGAAGCGUUCACGUCGCGGCCCCUGUCAGAUUCUGGUAAAUCUGCAAAUUCUGCUGU [G50A G58A], 1.01.
On to GGGGGCCACAGCAGAAGCGUUCACGUCGCGGCCCCUGUCAGAUUCUGGUAGAUCUGCGAAUUCUGCUGU [G50A A51G], for which the self-cleavage turned out to be 0.978.
As for GGGGGCCACAGCAGAAGCGUUCACGUCGCGGCCCCUGUCAGAUUCUGGUAUAUCUGCGAAUUCUGCUGU [G50A A51U], the self-cleavage was determined as 0.987.
The result for GGGGGCCACAGCAGAAGCGUUCACGUCGCGGCCCCUGUCAGAUUCUGGUAAAUAUGCGAAUUCUGCUGU [G50A C54A] reads 0.81.
The same measure for GGGGGCCACAGCAGAAGCGUUCACGUCGCGGCCCCUGUCAGAUUCUGGGGAAUCCGCGAAUUCUGCUGU [U49G U55C]: 0.814; for GGGGGCCACAGCAGAAGCGUUCACGUCGCGGCCCCUGUCAGAUUCUGGGGAAUCGGCGAAUUCUGCUGU [U49G U55G]: 0.819; for GGGGGCCACAGCAGAAGCGUUCACGUCGCGGCCCCUGUCAGAUUCUGGCGAACCUGCGAAUUCUGCUGU [U49C U53C]: 0.948.
The same measure for GGGGGCCACAGCAGAAGCGUUCACGUCGCGGCCCCUGUCAGAUUCUGGCGAAACUGCGAAUUCUGCUGU [U49C U53A]: 0.962; for GGGGGCCACAGCAGAAGCGUUCACGUCGCGGCCCCUGUCAGAUUCUGGCGAAGCUGCGAAUUCUGCUGU [U49C U53G]: 0.859.
In the case of GGGGGCCACAGCAGAAGCGUUCACGUCGCGGCCCCUGUCAGAUUCUGGUAAAUCUGCGUAUUCUGCUGU [G50A A59U], the self-cleavage was determined as 0.834.
For GGGGGCCACAGCAGAAGCGUUCACGUCGCGGCCCCUGUCAGAUUCUGGUAAAUCUGCGGAUUCUGCUGU [G50A A59G], the self-cleavage is 1.02.
In the case of GGGGGCCACAGCAGAAGCGUUCACGUCGCGGCCCCUGUCAGAUUCUGGGGAUUCUGCGAAUUCUGCUGU [U49G A52U], the self-cleavage is 0.986.
The result for GGGGGCCACAGCAGAAGCGUUCACGUCGCGGCCCCUGUCAGAUUCUGGGGACUCUGCGAAUUCUGCUGU [U49G A52C] reads 0.952.
On to GGGGGCCACAGCAGAAGCGUUCACGUCGCGGCCCCUGUCAGAUUCUGGUAAAUCUGCGAAUUAUGCUGU [G50A C63A], for which the self-cleavage turned out to be 0.856.
GGGGGCCACAGCAGAAGCGUUCACGUCGCGGCCCCUGUCAGAUUCUGGUAAAUCUGCGAAUUGUGCUGU [G50A C63G]: the self-cleavage was found to be 0.859.
The same measure for GGGGGCCACAGCAGAAGCGUUCACGUCGCGGCCCCUGUCAGAUUCUGGGAAAUCUGCGAAUUCUGCUGU [U49G G50A]: 1.02; for GGGGGCCACAGCAGAAGCGUUCACGUCGCGGCCCCUGUCAGAUUCUGGGGAAUCUGCGAACUCUGCUGU [U49G U61C]: 0.802.
The same measure for GGGGGCCACAGCAGAAGCGUUCACGUCGCGGCCCCUGUCAGAUUCUGGGGAAUCUGCGAAAUCUGCUGU [U49G U61A]: 0.921; for GGGGGCCACAGCAGAAGCGUUCACGUCGCGGCCCCUGUCAGAUUCUGGGGAAUCUGCGAAUACUGCUGU [U49G U62A]: 0.937; for GGGGGCCACAGCAGAAGCGUUCACGUCGCGGCCCCUGUCAGAUUCUGGGGAAUCUGCGAAUGCUGCUGU [U49G U62G]: 0.898.
The same measure for GGGGGCCACAGCAGAAGCGUUCACGUCGCGGCCCCUGUCAGAUUCUGGGGAAUCUGCGAAUCCUGCUGU [U49G U62C]: 0.923.
Consider GGGGGCCACAGCAGAAGCGUUCACGUCGCGGCCCCUGUCAGAUUCUGGGGAAUCUGCGAAUUCAGCUGU [U49G U64A], for which the self-cleavage was 0.985.
The result for GGGGGCCACAGCAGAAGCGUUCACGUCGCGGCCCCUGUCAGAUUCUGGGGAAUCUGCGAAUUCUGUUGU [U49G C66U] reads 0.98.
As to GGGGGCCACAGCAGAAGCGUUCACGUCGCGGCCCCUGUCAGAUUCUGGGGAAUCUGCGAAUUCUGGUGU [U49G C66G], the self-cleavage is 0.908.
Consider GGGGGCCACAGCAGAAGCGUUCACGUCGCGGCCCCUGUCAGAUUCUGGGGAAUCUGCGAAUUCUGCUUU [U49G G68U], for which the self-cleavage is 1.01.
The result for GGGGGCCACAGCAGAAGCGUUCACGUCGCGGCCCCUGUCAGAUUCUGGCGAAUCUCCGAAUUCUGCUGU [U49C G56C] reads 0.778.
For GGGGGCCACAGCAGAAGCGUUCACGUCGCGGCCCCUGUCAGAUUCUGGCGAAUCCGCGAAUUCUGCUGU [U49C U55C], the self-cleavage was found to be 0.795.
The result for GGGGGCCACAGCAGAAGCGUUCACGUCGCGGCCCCUGUCAGAUUCUGGCGAAUCAGCGAAUUCUGCUGU [U49C U55A] reads 0.936.
